In the assay the target is T1, 6x-His-3C-EIF4A3 (human, UniProt P38919 1-411).
T1 construct: EIF4A3, human, full length; source: E. coli BL21 DE3 RIL, purified (HisTrap, HiTrapQ, Superdex 75); not shown: His6, N-terminal, kept
As to the kind of experiment: pull-down; MBP-tagged bait (ALYREF constructs or CASC3 SELOR) mixed overnight at 4 °C with EIF4A3, Y14(66-154)–MAGOH, ssRNA and AMP-PNP in 25 mM HEPES pH 7.9, 50 mM NaCl, 5 mM MgCl2; held on amylose resin, maltose elution, SDS-PAGE with Coomassie. The settings on record: both partners purified.

We go through 1 molecule from article PMC7614608 (Nature, 2023).

T1 sequence (P38919 whole entry): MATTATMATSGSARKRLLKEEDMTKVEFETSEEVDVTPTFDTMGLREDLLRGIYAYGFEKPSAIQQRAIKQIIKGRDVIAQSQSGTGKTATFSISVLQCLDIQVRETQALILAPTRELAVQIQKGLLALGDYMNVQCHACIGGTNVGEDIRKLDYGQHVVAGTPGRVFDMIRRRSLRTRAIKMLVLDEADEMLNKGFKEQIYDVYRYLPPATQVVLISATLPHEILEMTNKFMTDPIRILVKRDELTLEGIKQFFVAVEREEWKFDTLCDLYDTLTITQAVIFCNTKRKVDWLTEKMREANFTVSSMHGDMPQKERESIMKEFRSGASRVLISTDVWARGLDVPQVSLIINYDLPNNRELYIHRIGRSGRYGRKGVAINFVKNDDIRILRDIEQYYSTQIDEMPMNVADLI

B1: 10x-His-MBP-3C-ALYREFN (ALYREF residues 1-182) (domain or fragment)
chain: not shown
notes: also called MBP-ALYREFN; source: E. coli BL21 DE3 RIL, purified (HisTrap, cation exchange, Superdex 75); not shown: His10, N-terminal, kept; MBP, N-terminal, kept
As for B1, the binding result is given as “binds”.
